The source of these data is patent US20180298070A1, “PEPTIDE COMPOUND” (Takeda Pharmaceutical Company Limited, published 2018).

In experiment [1] the target is human GLP-1R (human, UniProt P43220). Nature of the experiment: cell-based or functional assay.
The target in experiment [2] is T1, human GIPR (human), P48546.
T1 chain: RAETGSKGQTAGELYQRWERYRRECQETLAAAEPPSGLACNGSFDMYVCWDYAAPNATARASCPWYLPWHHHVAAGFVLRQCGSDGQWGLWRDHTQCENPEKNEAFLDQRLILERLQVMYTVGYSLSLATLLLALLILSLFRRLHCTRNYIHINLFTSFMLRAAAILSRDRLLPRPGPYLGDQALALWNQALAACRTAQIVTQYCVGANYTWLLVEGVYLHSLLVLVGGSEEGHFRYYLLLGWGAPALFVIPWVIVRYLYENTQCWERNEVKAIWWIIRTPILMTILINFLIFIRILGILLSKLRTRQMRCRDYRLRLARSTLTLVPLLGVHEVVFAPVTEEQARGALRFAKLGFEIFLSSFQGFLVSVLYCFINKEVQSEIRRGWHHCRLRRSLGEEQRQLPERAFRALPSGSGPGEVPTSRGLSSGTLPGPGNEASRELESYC

Experiment [3] concerns the target T2, human GLP-1R (human), P43220.
T2 chain: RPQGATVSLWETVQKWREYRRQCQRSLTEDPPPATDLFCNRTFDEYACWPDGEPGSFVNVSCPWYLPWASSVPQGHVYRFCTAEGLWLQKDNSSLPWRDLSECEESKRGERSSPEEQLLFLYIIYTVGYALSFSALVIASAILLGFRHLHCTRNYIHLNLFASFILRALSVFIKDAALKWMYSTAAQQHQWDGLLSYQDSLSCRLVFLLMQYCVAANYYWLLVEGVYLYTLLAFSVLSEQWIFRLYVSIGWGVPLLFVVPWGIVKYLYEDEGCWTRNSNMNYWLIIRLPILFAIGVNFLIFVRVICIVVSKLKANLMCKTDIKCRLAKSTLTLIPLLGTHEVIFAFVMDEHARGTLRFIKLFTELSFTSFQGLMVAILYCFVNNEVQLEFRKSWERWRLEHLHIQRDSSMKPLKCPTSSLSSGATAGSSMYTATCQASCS

The target of experiment [4] is T1, human GIPR (human), P48546. The experiment can be described thus: [125I]GIP displacement, hGIPR VLP.

Where a chain is given by its changes, count along the chain named. Starred links: 1 amine or outer side, 2 acyl side, 3 side chain; linkers in the order of their positions; H or OH if unused. Non-standard residues stand in square brackets, D forms with d. Groups on a side chain read outwards from the residue. Primed or numbered codes have the meaning given here. No end group written: not given here. *: point of attachment. C20 diacid = O=C(O)CCCCCCCCCCCCCCCCCCC(=O)*; γGlu = O=C(O)[C@H](CCC(=O)[*:2])N[*:1]; NMeY = CN[C@@H](Cc1ccc(O)cc1)C(=O)O; αMeF = C[C@](N)(Cc1ccccc1)C(=O)O; Lauroyl = CCCCCCCCCCCC(=O)*; dIva = CC[C@@](C)(N)C(=O)O; Iva = CC[C@](C)(N)C(=O)O; PEG3′ = not defined here; Aib = CC(C)(N)C(=O)O Bounds are passed on as bounds.

B1: Compound 435 (peptide)
peptide: YXEGTXISDYSIXXDRXAQXNFVNWXLAQRPSSGAPPPS
modifications: N-terminal acetyl (Ac-Tyr); Aib at 2, 13, 17, 20; Iva at 6, 26; Lys(Eda-GGGGG-) at 14; C-terminal NH2
In the case of B1, the “Agonist activity (EC50, M)” value in experiment [1] was over 1e-06 M.

B2: Compound 465 (peptide)
peptide: B1 peptide
modifications: N-methyl on Tyr1 (Me-Tyr); Aib at 2, 13, 17, 20; Iva at 6, 26; Lys(Hepda-GGGGG-) at 14; C-terminal NH2
Consider B2, for which, in experiment [1], the “Agonist activity (EC50, M)” value is over 1e-06 M.

B3: Compound 457 (peptide)
peptide: B1 peptide
modifications: N-methyl on Tyr1 (Me-Tyr); Aib at 2, 13, 17, 20; Iva at 6, 26; Lys(Heda-GGGGGG-) at 14; C-terminal NH2
In the case of B3, the “Agonist activity (EC50, M)” value in experiment [1] was over 1e-06 M.

B4: Compound 459 (peptide)
peptide: B1 peptide
modifications: N-methyl on Tyr1 (Me-Tyr); Aib at 2, 13, 17, 20; Iva at 6, 26; Lys(Hda-GGGGG-) at 14; C-terminal NH2
In the case of B4, the “Agonist activity (EC50, M)” value in experiment [1] was over 1e-06 M.

B5: Compound 441 (peptide)
peptide: B1 peptide
modifications: not fully specified; N-methyl on Tyr1 (MeTyr); Aib at 2, 13, 17, 20; Iva at 6, 26; Lys(Oda-GGGGG-) at 14; C-terminal OH
In the case of B5, the “Agonist activity (EC50, M)” value in experiment [1] was over 1e-06 M.

B6: Compound 475 (peptide)
peptide: B1 peptide with A18H
modifications: N-methyl on Tyr1 (Me-Tyr); Aib at 2, 13, 17, 20; Iva at 6, 26; Lys(Eda-GGGGG-) at 14; C-terminal NH2
In the case of B6, in experiment [1], the “Agonist activity (EC50, M)” value was over 1e-06 M.

B7: Compound 466 (peptide)
peptide: B1 peptide
modifications: N-methyl on Tyr1 (Me-Tyr); Aib at 2, 13, 17, 20; Iva at 6, 26; Lys(Hepda-GGGGGG-) at 14; C-terminal NH2
Turning to B7, the “Agonist activity (EC50, M)” value in experiment [1] is over 1e-06 M.

B8: Compound 445 (peptide)
peptide: B1 peptide
modifications: N-methyl on Tyr1 (Me-Tyr); Aib at 2, 13, 17, 20; Iva at 6, 26; Lys(Heda-GGGGG-) at 14; C-terminal NH2
Consider B8, for which, in experiment [1], the “Agonist activity (EC50, M)” value was over 1e-06 M.

B9: Compound 484 (peptide)
peptide: B1 peptide with A18H
modifications: N-methyl on Tyr1 (Me-Tyr); Aib at 2, 13, 17, 20; Iva at 6, 26; Lys(Oda-GGGGGG-) at 14; C-terminal NH2
With B9, the “Agonist activity (EC50, M)” value in experiment [1] is over 1e-06 M.

B10: Compound 439 (peptide)
peptide: B1 peptide
modifications: N-methyl on Tyr1 (Me-Tyr); Aib at 2, 13, 17, 20; Iva at 6, 26; Lys(Oda-GGGGGG-) at 14; C-terminal NH2
Turning to B10, in experiment [1], the “Agonist activity (EC50, M)” value was over 1e-06 M.

On to Y[Aib]EGTFISDYSIALDRK([PEG(2)-dodec])HQQDFVNWLLAQRPSSGAPPPS (not fully specified (C-terminus); ends and bridges not checked) [Compound 232], for which the figures for the Agonist activity (EC50, M) in experiment [2] and in experiment [3] were 3.2e-12 M and over 1e-06 M, respectively. Besides, the IC50 in experiment [4] was 2.1 nM.

[NMeY][Aib]EGTFISDYSIALDRIAQQS[αMeF]VNWLLAQRPSSGAPPPSR (not fully specified (C-terminus); ends and bridges not checked) [Compound 71]: the Agonist activity (EC50, M) was 2.5e-12 M in experiment [2] and over 1e-06 M in experiment [3]. In addition, the IC50 in experiment [4] is 2.1 nM.

As for Y[Aib]EGTFISDYSIALDRK([PEG(2)-C20 diacid])HQQDFVNWLLAQRPSSGAPPPS (not fully specified (C-terminus); ends and bridges not checked) [Compound 234], the results for the Agonist activity (EC50, M) in experiment [2] and in experiment [3] were 1.5e-10 M and over 1e-06 M, respectively. Also, in experiment [4], the IC50 was found to be 82 nM.

Y[Aib]EGTFISDYSK([PEG3′-PEG3′-γGlu-C20 diacid])ALDRIHQQDFVNWLLAQRPSSGAPPPS (not fully specified (C-terminus); ends and bridges not checked) [Compound 238]: the Agonist activity (EC50, M) in experiment [2] is 8.3e-11 M; in experiment [3] it was over 1e-06 M. The molecule also showed a 50% inhibitory concentration (IC50) in experiment [4] of 43 nM.

In the case of Y[Aib]EGTFISDYSIALDRK([PEG3′-PEG3′-γGlu-C20 diacid])HQQDFVNWLLAQRPSSGAPPPS (not fully specified (C-terminus); ends and bridges not checked) [Compound 237], the Agonist activity (EC50, M) was 1.6e-10 M in experiment [2] and over 1e-06 M in experiment [3]. In addition, the IC50 in experiment [4] worked out at 110 nM.

On to [NMeY][Aib]EGTFISDYSIALDRIAQ[Aib]NFVNW[Iva]LAQRPSSGAPPPSR (not fully specified (C-terminus); ends and bridges not checked) [Compound 68], for which the Agonist activity (EC50, M) in experiment [2] came out at 1.7e-12 M; in experiment [3], 3.5e-07 M. For the same molecule, the IC50 in experiment [4] worked out at 2.4 nM.

Take [NMeY][Aib]EGTFISDYSI[dIva]LDR[Aib]AQQDFVNWLLAQRPSSGAPPPSR (ends and bridges not checked) [Compound 79]: the Agonist activity (EC50, M) in experiment [2] was 1.1e-12 M; in experiment [3], over 1e-06 M. The molecule also had an IC50 in experiment [4] of 1.2 nM.

Turning to [NMeY][Aib]EGTFISDYSI[dIva]LDRIAQ[Aib]NFVNW[Iva]LAQRPSSGAPPPSR (ends and bridges not checked) [Compound 92], the figures for the Agonist activity (EC50, M) in experiment [2] and in experiment [3] were 1.3e-12 M and over 1e-06 M, respectively. This molecule displayed an IC50 in experiment [4] of 2.3 nM.

B11: Compound 415 (peptide)
peptide: YXEGTXISDYSIXXDRXAQXNFVNWXLAQR
modifications: N-methyl on Tyr1 (MeTyr); Aib at 2, 13, 17, 20; Iva at 6, 26; Lys(Oda-GGGGG-) at 14; C-terminal NH2
As for B11, in experiment [1], the “Agonist activity (EC50, M)” value is over 1e-06 M.

On to Y[Aib]EGTFISDYSK([PEG(2)-Lauroyl])ALDRIHQQS[αMeF]VNW[Iva]LAQRPSSGAPPPS (not fully specified (C-terminus); ends and bridges not checked) [Compound 223], for which the Agonist activity (EC50, M) in experiment [2] was 5.1e-12 M; in experiment [3], over 1e-06 M. The molecule also came in with a concentration for half-maximal inhibition (IC50) in experiment [4] of 3 nM.

For the molecule Y[Aib]EGTFISDYSIALDRK([PEG(2)-Pal])HQ[Aib]NFVNW[Iva]LAQRPSSGAPPPS (not fully specified (C-terminus); ends and bridges not checked) [Compound 240], the Agonist activity (EC50, M) amounted to 3e-12 M in experiment [2] and 5.8e-09 M in experiment [3]. Further, the half-maximal inhibitory concentration (IC50) in experiment [4] was determined as 2.4 nM.

B12: Compound 473 (peptide)
peptide: YXEGTXISDYSIXXDRXAQXNFVNWXLAQRPSSGAPPPSR
modifications: N-methyl on Tyr1 (Me-Tyr); Aib at 2, 13, 17, 20; Iva at 6, 26; Lys(Eda-GGGGG-) at 14; C-terminal NH2
In the case of B12, in experiment [1], the “Agonist activity (EC50, M)” value is over 1e-06 M.

B13: Compound 479 (peptide)
peptide: B12 peptide
modifications: N-methyl on Tyr1 (Me-Tyr); Aib at 2, 13, 17, 20; Iva at 6, 26; Lys(Oda-GGGGGG-) at 14; C-terminal NH2
With B13, the “Agonist activity (EC50, M)” value in experiment [1] is over 1e-06 M.

As for Y[Aib]EGTFISDYSK([PEG(2)-Lauroyl])ALDRIHQQSFVNW[Iva]LAQRPSSGAPPPS (not fully specified (C-terminus); ends and bridges not checked) [Compound 222], the Agonist activity (EC50, M) in experiment [2] is 3.7e-12 M; in experiment [3], over 1e-06 M. Also, in experiment [4], the IC50 is 2.9 nM.

For the molecule [NMeY][Aib]EGTFISDYSIALDRIAQ[Aib]N[αMeF]VNWLLAQRPSSGAPPPSR (not fully specified (C-terminus); ends and bridges not checked) [Compound 72], the figures for the Agonist activity (EC50, M) in experiment [2] and in experiment [3] were 2.6e-12 M and 2.3e-07 M, respectively. The same molecule registered an IC50 in experiment [4] of 2.7 nM.
